Changes are numbered by the printed parent chain.

The target in assay [1] is hVISTA-ECD (human). In words: SPR pH 6.0, 37C.
Assay [2] addresses hVISTA-ECD (human). Put plainly: SPR pH 6.45, 37C.
Assay [3] has as its target hVISTA-ECD (human). In words: SPR pH 7.4, 37C.
Assay [4] deals with hVISTA-ECD (human). In words: SPR pH 6.0, 37C. The source holds these as a separate data set.
Assay [5] concerns the target hVISTA-ECD (human). Put plainly: SPR pH 6.0, 37C. The source holds these as a separate data set.
Assay [6] deals with hVISTA-ECD (human). In words: SPR pH 7.4, 37C. This is another data set of the same source.
The target in assay [7] is hVISTA-ECD (human). In words: SPR pH 7.4, low or no binding.
Assay [8] addresses hVISTA-ECD (human). Put plainly: SPR pH 6.0.
For assay [9], the target named is hVISTA-ECD (human). Put plainly: SPR pH 6.9, 37C.
The target of assay [10] is hVISTA-ECD (human). Put plainly: SPR pH 6.45.
The target in assay [11] is hVISTA-ECD (human). Put plainly: SPR pH 6.9.
The target in assay [12] is hVISTA-ECD (human). Put plainly: SPR pH 7.4, 37C. The source holds these as a separate data set.
Assay [13] deals with hVISTA-ECD (human). In words: SPR pH 6.9, low or no binding.
Assay [14] concerns the target hVISTA-ECD (human). Put plainly: SPR pH 6.45, low or no binding.
For assay [15], the target named is hVISTA-ECD (human). Put plainly: SPR pH 7.4, 37C. This is another data set of the same source.
The target in assay [16] is hVISTA-ECD (human). In words: SPR pH 6.0, 37C. The source holds these as a separate data set.

Sequence of hVISTA-ECD (human) (chain, as listed by the source): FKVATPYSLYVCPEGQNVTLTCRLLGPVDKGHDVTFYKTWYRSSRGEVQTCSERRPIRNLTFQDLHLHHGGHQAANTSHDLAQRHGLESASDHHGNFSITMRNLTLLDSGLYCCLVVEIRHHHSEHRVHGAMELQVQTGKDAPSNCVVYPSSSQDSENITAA

B1: P1-068767 (antibody, V domains shown)
VH: EVQLVESGGGLVQPGKSLRLSCAASGFTLEDYAMHWVRQAPGKGLEWVSGIDWNSENIGYADSVKGRFTISRDNAKNSLYLQMNSLRTEDTALYYCAKVPGYSGGWIDAEDDWGQGTMVTVSS
VL: not shown
The term Kd denotes the constant that tells how readily two partners part at equilibrium. On to B1, for which the Kd in the assay with hVISTA-ECD [1] worked out at 7.6 nM; with hVISTA-ECD [2] it was 38 nM; with hVISTA-ECD [3], 19000 nM; with hVISTA-ECD [4] it was 3.4 nM; with hVISTA-ECD [5] it was 7.8 nM; with hVISTA-ECD [6], 19000 nM. Besides, the Kd in the assay with hVISTA-ECD [8] is 6.78 nM; in the assay with hVISTA-ECD [9] it was 400 nM; with hVISTA-ECD [10], 31.8 nM; with hVISTA-ECD [11] it was 385 nM. The binding result with hVISTA-ECD [7] is “no binding”.

B2: P1-070904 (P1-068767_E30D) (antibody, V domains shown)
VH: B1 VH with E30D
VL: not shown
As to B2, the binding result in the assay with hVISTA-ECD [7] is given as “no binding”.

B3: P1-068767 hIgG1f (antibody, V domains shown)
VH: B1 VH
VL: not shown
In the case of B3, the Kd with hVISTA-ECD [5] is 8 nM; with hVISTA-ECD [6], 22000 nM.

B4: P1-070890 (P1-068761_E30D_E55A) (antibody, V domains shown)
VH: B1 VH with E30D, Y32E, D52N, E56A, N57E, G104H, D112V
VL: not shown
On to B4, for which, in the assay with hVISTA-ECD [7], the binding result is given as “no binding”.

B5: P1-068765 (antibody, V domains shown)
VH: B1 VH with L29D, D52N, N57E
VL: not shown
As to B5, in the assay with hVISTA-ECD [7], the binding result is given as “no binding”.

B6: P1-068773 (antibody, V domains shown)
VH: B1 VH with E56D
VL: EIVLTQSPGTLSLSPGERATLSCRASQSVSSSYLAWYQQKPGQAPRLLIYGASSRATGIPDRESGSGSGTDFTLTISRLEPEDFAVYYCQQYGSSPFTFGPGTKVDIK
B6 came in with a Kd in the assay with hVISTA-ECD [1] of 9.4 nM.

B7: P1-070872 (P1-068761_H100G) (antibody, V domains shown)
VH: B1 VH with Y32E, D52N, N57E, D112V
VL: not shown
With B7, the binding result with hVISTA-ECD [7] is on record as “no binding”.

B8: P1-061029 hIgG1f afucosylated (antibody, V domains shown)
VH: B1 VH with E30D, D52N, E56A, E110F, D112V
VL: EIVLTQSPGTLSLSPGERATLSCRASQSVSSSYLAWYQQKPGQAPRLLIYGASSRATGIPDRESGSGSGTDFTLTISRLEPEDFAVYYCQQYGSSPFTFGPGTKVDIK
In the case of B8, the Kd turned out to be 6.9 nM in the assay with hVISTA-ECD [5] and 41 nM with hVISTA-ECD [6].

B9: P1-070864 (P1-068761_E30D) (antibody, V domains shown)
VH: B1 VH with E30D, Y32E, D52N, N57E, G104H, D112V
VL: not shown
Consider B9, for which the binding result with hVISTA-ECD [7] was “no binding”.

B10: P1-068761 (antibody, V domains shown)
VH: B1 VH with Y32E, D52N, N57E, G104H, D112V
VL: not shown
As to B10, the binding result with hVISTA-ECD [7] was “no binding”.

B11: P1-068761 hIgG1f afucosylated (antibody, V domains shown)
VH: B1 VH with Y32E, D52N, N57E, G104H, D112V
VL: not shown
Consider B11, for which the Kd came to 4.1 nM in the assay with hVISTA-ECD [5] and 8200 nM in the assay with hVISTA-ECD [6].

B12: P1-070922 (P1-068767_E30D_E55A) (antibody, V domains shown)
VH: B1 VH with E30D, E56A
VL: not shown
Regarding B12, the binding result in the assay with hVISTA-ECD [7] is on record as “no binding”.

B13: P1-070900 (P1-068761_E56N_H100G) (antibody, V domains shown)
VH: B1 VH with Y32E, D52N, D112V
VL: not shown
Consider B13, for which the binding result with hVISTA-ECD [7] was “no binding”.

B14: P1-068775 (antibody, V domains shown)
VH: B1 VH with Y32E, N57E, G104H
VL: not shown
As to B14, the binding result with hVISTA-ECD [12] is “no binding”.

B15: P1-070870 (P1-068761_E56N) (antibody, V domains shown)
VH: B1 VH with Y32E, D52N, G104H, D112V
VL: not shown
Turning to B15, in the assay with hVISTA-ECD [7], the binding result is “no binding”.

B16: P1-070878 (P1-068761_E55A_E56N) (antibody, V domains shown)
VH: B1 VH with Y32E, D52N, E56A, G104H, D112V
VL: not shown
For the molecule B16, the binding result with hVISTA-ECD [7] was “no binding”.

B17: P1-068757 (antibody, V domains shown)
VH: B1 VH with Y32E, D52N, N57E
VL: not shown
Turning to B17, in the assay with hVISTA-ECD [13], the binding result is listed as “no binding”.

B18: P1-068759 (antibody, V domains shown)
VH: B1 VH with Y32E
VL: not shown
As for B18, the binding result in the assay with hVISTA-ECD [14] is “no binding”.

B19: P1-068769 (antibody, V domains shown)
VH: B1 VH with Y32E, D52N, E56D, N57H
VL: not shown
For the molecule B19, in the assay with hVISTA-ECD [12], the binding result is reported as “no binding”.

B20: P1-068771 (antibody, V domains shown)
VH: B1 VH with Y32E, D52N, E56H, N57E
VL: not shown
As for B20, in the assay with hVISTA-ECD [12], the binding result is on record as “no binding”.

B21: P1-068767 hIgG1f afucosylated (antibody, V domains shown)
VH: B1 VH
VL: not shown
Consider B21, for which the Kd in the assay with hVISTA-ECD [5] is 7.9 nM; in the assay with hVISTA-ECD [6], 24000 nM.

B22: P1-068748 (antibody, V domains shown)
VH: QVQLVESGGGVVQPGRSLRLSCAASGFTFSHHAMHWVRQAPGKGLEWVAIIWYDGSNDDYADSVKGRFTISRDNSKNTLYLQMNSLRAEDTAVYYCARDSGFYDSYYFDYWGQGTLVTVSS
VL: EIVLTQSPATLSLSPGERATLSCRASQSVSSSYLAWYQQKPGQAPRLLIYDASNRATGIPARFSGSGSGTDFTLTISSLEPEDFATYYCQQYNSYPYTFGQGTKLEIK
Turning to B22, the binding result in the assay with hVISTA-ECD [15] is “no binding”.

B23: P1-068744 (antibody, V domains shown)
VH: B22 VH with H31E, H32Y, I50H, D58K, D59Y, Y60E, D104E, Y110E
VL: B22 VL
Take B23: the binding result with hVISTA-ECD [7] was “no binding”.

B24: P1-068746 (antibody, V domains shown)
VH: B22 VH with H31S, H32Y, D58H, D59H
VL: B22 VL
For orientation: koff means the first-order rate constant of dissociation. A high value points to a short-lived complex. For B24, the dissociation rate constant (koff) with hVISTA-ECD [16] is greater than 0.01 s⁻¹.

B25: P1-068742 (antibody, V domains shown)
VH: B22 VH with H31D, H32Y, N57D, D58K, D104E, S105D
VL: B22 VL
B25 displayed a koff with hVISTA-ECD [16] greater than 0.01 s⁻¹.

Source of the values: patent US12735488 (dated 2026).
